Source: US20230242615A1

Biological target: IL4Rα on TF1 cells (UniProt P24394)
Assay: cell-based or functional assay

IC50 (nM) Blocking IL4, TF-1 cell proliferation: 3.1 nM
IC50 (nM) Blocking IL13, TF-1 cell proliferation: 20.5 nM
Relative activity (blocking IL4, against Dupilumab): 1 fold
Relative activity (blocking IL13, against Dupilumab): 1 fold
B1: Dupilumab (antibody, INN chains, looked up, V domains shown)
VH: EVQLVESGGGLEQPGGSLRLSCAGSGFTFRDYAMTWVRQAPGKGLEWVSSISGSGGNTYYADSVKGRFTISRDNSKNTLYLQMNSLRAEDTAVYYCAKDRLSITIRPRYYGLDVWGQGTTVTVSS
VL: DIVMTQSPLSLPVTPGEPASISCRSSQSLLYSIGYNYLDWYLQKSGQSPQLLIYLGSNRASGVPDRFSGSGSGTDFTLKISRVEAEDVGFYYCMQALQTPYTFGQGTKLEIKR
